The values that follow come from patent US20190002529A1 (GOVERNMENT OF THE UNITED STATES OF AMERICA AS REPRESENTED …, published 2019).

The experiment deals with T1, Eptatretus stoutii FIL-Alpha including a polyhistidine tag (Eptatretus stoutii, UniProt Q90501 1-643).
T1 construct: Recombinant protein expressed in E. coli; also called alpha protein; hagfish intermediate filament alpha protein
T1 sequence: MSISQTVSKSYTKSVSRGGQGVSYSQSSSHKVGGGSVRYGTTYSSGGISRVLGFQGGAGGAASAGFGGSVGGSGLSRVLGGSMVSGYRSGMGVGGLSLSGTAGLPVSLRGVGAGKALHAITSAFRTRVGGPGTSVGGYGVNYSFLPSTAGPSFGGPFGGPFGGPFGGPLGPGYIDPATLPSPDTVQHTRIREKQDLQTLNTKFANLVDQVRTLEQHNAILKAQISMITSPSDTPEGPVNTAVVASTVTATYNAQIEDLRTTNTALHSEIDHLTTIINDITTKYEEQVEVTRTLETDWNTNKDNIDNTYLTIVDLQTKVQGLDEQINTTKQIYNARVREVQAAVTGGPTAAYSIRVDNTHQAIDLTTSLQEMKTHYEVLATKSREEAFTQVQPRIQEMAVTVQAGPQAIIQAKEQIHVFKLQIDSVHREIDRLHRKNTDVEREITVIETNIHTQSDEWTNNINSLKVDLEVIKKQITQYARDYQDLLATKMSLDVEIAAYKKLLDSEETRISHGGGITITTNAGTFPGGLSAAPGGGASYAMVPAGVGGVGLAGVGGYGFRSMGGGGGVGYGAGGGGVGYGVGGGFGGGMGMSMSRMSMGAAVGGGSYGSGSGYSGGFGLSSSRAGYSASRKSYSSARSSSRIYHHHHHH
The experiment in a line: filament/thread self-assembly of refolded recombinant His-tagged proteins; filaments observed by microscopy.

B1: Eptatretus stoutii FIL-Gamma including a polyhistidine tag (other)
chain: MASHSSVSYRSVRTGGTSAMIGSSGYGGSSSSRAMGLGMGAAGLSMGGGSFRVGSAGIGGMGISSGIGGMGISSRAGGMSAYGGAASGGAGGFVSGGVPMLGYGGGAGGFIGGVSPGIMASPAFTAGRAITSAGMSGVVGTLGPAGGMVPSLVSRDEVKNILGTLNQRLASYVDKVRQLTIENETMEEELKNLTGGVPMSPDSTVNLENVETQVTEMLTEVSNLTLERVRLEIDVDHLRATADEIKSKYEFELGVRMQLETDIANMKRDLEAANDMRVDLDSKFNFLTEELTFQRKTQMEELNTLKQQFGRLGPVQTSVIELDNVKSVNLTDALNVMREEYQQVVTKNVQEAETYCKMQIDQIQGISTQTTEQISILDKEINTLEKELQPLNVEYQRLLTTYQTLGDRLTDLQNRESIDLVQFQNTYTRYEQEIEGNQVDLQRQLVTYQQLLDVKTALDAEIATYKKLLEGQELMVRTAMADDFAHATVVRSGTLGGASSSSVGYGASSTTLGAISGGYSTGGGASYSAGAGGASYSAGAGGASYGVGGGYSGGSSAMMEGSSSGGHSMYSSSSMKRSSSKSASASAGGYGTSGHDSTIILQQHHHHHH
notes: also called gamma protein; hagfish intermediate filament gamma protein
On to B1, for which the binding result is on record as “binds”.
